# The nanobody polyreactivity screen of Harvey et al. (2022)
# Test: yeast display, Sf9 membrane polyspecificity reagent, FACS + sequencing; frameworks hold sequencing errors
# Outline: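 Synthetic nanobody libraries on Saccharomyces cerevisiae BJ5465 were galactose-induced for 36–48 hours, stained 1 hour at 4 °C with 10% biotinylated, detergent-solubilized Sf9 membrane reagent and enriched on streptavidin microbeads. FACS then separated cells into low and high (top ~1%) gates by anti-HA (expression) and streptavidin (reagent binding) fluorescence. Genes were colony-PCR amplified, MiSeq 2 × 250 sequenced and CDR-length filtered. A clone's polyreactivity label is that of its gate of origin.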
row,Sequence,polyreactivity (PSR sort gate)
1,QVQLVESGGGLVQAGGSLRLSCAASGFIFNTMGWYRQARGKERELVARITRGGSTDYADSVKGRFTISRDNAKNTVYLQMNSLKPEDTAFYYCAAAIGHFERFYWGQGTQVTVSS,low polyreactivity
2,QVQLVESGGGLVQAGGSLRLSCAASGFIFNYNAMGWYRQAPGKERELVAAISGTGVRTYYADSVKGRFTISRDNAKNTVYLQMNRLKPEDTAVYYCNAYYGYIPVSGYRNDYWGQGTQVTVSS,low polyreactivity
3,QVQLVESGGGLVQAGGSLRLSCAASGFIFNYNTMGWYRQAPGKERELVAAISFSGGSTYYADSVKGRFTISRDNAKNTVYLQMNSLKPEDTAVYYCATRNGRQYSVSYRYYYWGQGTQVTVSS,low polyreactivity
4,QVQLVESGGGLVQAGGSLRLSCAASGFIFPAYAMGWYRQAPGKERELVAGITSRGGSTYYADSVKGRFTISRDNAKNTVYLQMNSLKPEDTAVYYCAKPYHWPWTRFDYWGQGTQVTVSS,low polyreactivity
5,QVQLVESGGGLVQAGGSLRLSCAASGFIFPDYAMGWSRQAPGKERELVAAISKRGGSTYYADSVKGRFTISRDNAKNTVYLQMNSLKPEDTAVYYCAAVTSVNPSVFNGNYWGQGTHVTVSS,low polyreactivity
6,QVQLVESGGGLVQAGGSLRLSCAASGFIFPLYTMGWYRQAPGKERELVAAITCSGGSTYYADSVKGGFTISRDNAKNTVYLQMNSLKPEDTAVYYCAKDYTYGMDWGQGTQVTVSS,low polyreactivity
7,QVQLVESGGGLVQAGGSLRLSCAASGFIFPNYAMGWYRQAPGKEREFVASISWSGGSTYYADSVKGRFTISRDNAKNTVYLQMNSLKPEDTEVYYCNAVAFFNHGAGEDYWGQGTQVTVSS,high polyreactivity
8,QVQLVESGGGLVQAGGSLRLSCAASGFIFPQYAMGWYRQAPGKERELVAAISTGGGSTYYADSVKGRFTISRDNAKNTVYLQMNSLKPEDTAVYYCAKYVYRFARYNLDYWGQGTQVTVSS,high polyreactivity
9,QVQLVESGGGLVQAGGSLRLSCAASGFIFPRNAMGWYRPAPGKERELVAAISRSGGRTYYADSVKGRFTISRDNAKNTVYLQMNSLKPEDTAVYYCNADLALRSRYGEYDYWGQGTQVTVSS,high polyreactivity
10,QVQLVESGGGLVQAGGSLRLSCAASGFIFPRNAMGWYRQAPGKERELVAGITRGGSTNYADSVKGRFTISRDNAKNTVYLQMNSLKPEDTAVYYCAAKSYNYNRPYGWREYDYWGQGTQVTVSS,high polyreactivity
11,QVQLVESGGGLVQAGGSLRLSCAASGFIFPRNVMGWYRQAPGKERELVAAISRSGGSTYYADSVKGRFTISRDNAKNTVYLQMNSLTPEDTAVYYCAKRPAYYYFVYQVPIGYDYWGQGTQVTVSS,high polyreactivity
12,QVQLVESGGGLVQAGGSLRLSCAASGFIFPRYAMGWYRQAPGKERELVADISYSGGSTYYADSVKGRFTISRDNAKNTVYLQMNSLKPEDTAVYRPYAFGYWGQGTQVTVSS,high polyreactivity
13,QVQLVESGGGLVQAGGSLRLSCAASGFIFPSYAMGWYRQAPGKERELVAAITSSGGSTYYADSVKGRFTISRDNAKNTVYLQMNSLKPEDTAVYYCNARYPGRARRYNYWGQGTQVTVSS,high polyreactivity
14,QVQLVESGGGLVQAGGSLRLSCAASGFIFPTNVMGWYRQAPGKEREFVASITWRGGGTYYADSVKGRFTISRDNAKNTVYLPMNSLKPEDTAVYYCAAGRSWSSYWKYDYWGQGTQVTVSS,low polyreactivity
15,QVQLVESGGGLVQAGGSLRLSCAASGFIFPTYAMGWYRQAPGKERELVATITSAVRTKYADSVKGRFTISRDNAKNTVYLQMNSLKPEDTAVYYSAAAYTVARFYRYYYWGQGTQVTVSS,high polyreactivity
16,QVQLVESGGGLVQAGGSLRLSCAASGFIFPVYAMGWYTQGGGKERELVADISSDGSTNYADSVKGRFTISRDNAKNTVYLQMNSLKPEDTAVYYCAREDNLRHQSDSRYDYWGQGTQVTVSS,low polyreactivity
17,QVQLVESGGGLVQAGGSLRLSCAASGFIFPWYAMGGYRQAPRKERELVAAITSGGTTYYADSVKGRFTISRDNAKNTVYLQMNSLKPEDTAVYYCAAQYYFYPHEFDYWGQGTQVTVSS,low polyreactivity
18,QVQLVESGGGLVQAGGSLRLSCAASGFIFPYYAMGWYRQAPGKERELVAAITRSGGRTYYADSVKGRFTISRDNAKNTVYLQMNSLKPEDTAVYYCAVRYIRYRNLKYDFWGQGTHVTVSS,high polyreactivity
19,QVQLVESGGGLVQAGGSLRLSCAASGFIFQAYALGWYRQAPGKERELVASISYSGSRTYYADSVKGRFTISRDNAKNTVYLQMNSLKPEDTAGYYCAARYGRYYKYNYWGQGTQVTVSS,high polyreactivity
20,QVQLVESGGGLVQAGGSLRLSCAASGFIFQAYAMGWYRQAPGKERELVAAISSSGGSTYYADSVTGRFTISRDNAKNTVYLQMNSLKPEDTAVYYCAALRYVKMLAQAYEYWGQGTQVTVSS,high polyreactivity
21,QVQLVESGGGLVQAGGSLRLSCAASGFIFQDYALGWYRKAPGKERELVAAITQSSGSTYYADSVKGRFTISRDNAKNTVYLQMNSLKPEDTAVYYCNTAYDFSRQASYDYWGQGTQVTVSS,low polyreactivity
22,QVQLVESGGGLVQAGGSLRLSCAASGFIFQEYAMGWYRQAPGKERELVAAITSGGSTNYADSVKGRFTISRDNAKNTVYLQMNSLKPADTAVYYCNVDSPDYYYDYDYWGQGTQVTVSS,low polyreactivity

row,Sequence,polyreactivity (PSR sort gate)
1,QVQLVESGGGLVQAGGSLRLSCAASGFIFQPYAMGWYRQAPGKERELVAAITSRGGRTYYADSVKGRITISRDNAKNTVYLQMNSLKPEDTAVYYCNADIYASEYYYWGQGTQVTVSS,low polyreactivity
2,QVQLVESGGGLVQAGGSLRLSCAASGFIFQSYAMGWYRQAPGKERELVAAITRSGGRTYYADSVKGRFTISRDNAKNTVYLQMNSLKPEDTAVYYCAAETSYPGIYRFYYWGQGTQVTVSS,high polyreactivity
3,QVQLVESGGGLVQAGGSLRLSCAASGFIFQVYAMGWYRQAPGKERELVAAISDDGSTNYADSVKGRFTISRDNAKYTVYLQMNSLKPEDTAVYYCAKESWGRLYYRYDYWGQGTQVTVSS,low polyreactivity
4,QVQLVESGGGLVQAGGSLRLSCAASGFIFQWYAMGWYRPAPGKERELVAGISAGSTNYADSVKGRFTISRDNAKNTVYLQMNSLKPEDTAVYYCAARDYYIPYYSPGYPYDYWGQGTQVTVSS,high polyreactivity
5,QVQLVESGGGLVQAGGSLRLSCAASGFIFRAYAMGWYRQAPGKERELVAAISRSGSRTYYADSVKGRFTISRDHAKNTVYLQMNSLKPEDTAVYYCAADHGSLLYDYWGQGTQVTVSS,high polyreactivity
6,QVQLVESGGGLVQAGGSLRLSCAASGFIFRAYAMGWYRQAPGKERELVAAISWRGTSTYYADSVKGRFTISRDNAKNTVYLQMNSLKPEDTAVYYCARRRYLPFSRSQGSEDYWGQGTQVTVSS,high polyreactivity
7,QVQLVESGGGLVQAGGSLRLSCAASGFIFRDYVMGWYRQAPGKERELVAAISYRDGSTYYADSVKGRFTISRDNAKNTVYLQMNSLKPEDTAVYYCNAPGYQGYEYWGQGTQVTVSS,low polyreactivity
8,QVQLVESGGGLVQAGGSLRLSCAASGFIFRFYAMGWYRQAPGKERELVAGISSSGGSTYYADSLKGRFTISRDNAKTTVYLQMNSLKPEDTAVYYCNAKRSDQSSKTFNYWGQGTQVTVSS,low polyreactivity
9,QVQLVESGGGLVQAGGSLRLSCAASGFIFRFYAMGWYRQAPGKERELVAGISSSGGSTYYADSVKGRFTISRDNAKNTVYLQMNSLKPEDTAVYYCNAKRSDQSSKTFNYWGQGTQVTVSS,low polyreactivity
10,QVQLVESGGGLVQAGGSLRLSCAASGFIFRFYAMGWYRQAPGKERELVASISRRAGRTYYADSVKGRFTISRDNAKNTVYLQMNSLKPEDTAVYYCAASGFGSFRYSSTYDYWGQCTQVTVSS,high polyreactivity
11,QVQLVESGGGLVQAGGSLRLSCAASGFIFRGNTMGWYRQAPGKERELVAAISASGGSTYYADSVKGRFTISRDNAKNTVYLQMNSLKPEDTAVYYCNVAVIYRSRPYWYGMDYWGQGTQVTVSS,high polyreactivity
12,QVQLVESGGGLVQAGGSLRLSCAASGFIFRGYAMGWYRQAPGKERELVAAISRRGGSTYYADSVKGRFTISRHNAKNTVYLLMNSLKPEDTAVYYCNADTTQQGNVRVGYWGQGTQVTVSS,high polyreactivity
13,QVQLVESGGGLVQAGGSLRLSCAASGFIFRGYAMGWYRQAPGKERELVAAISTGGGRTYYADSVKGRFTISRDNAKNTVYLQMNSLKPEDTAVYYCNRRSYTQVLMDYWGQGTQVTVSS,high polyreactivity
14,QVQLVESGGGLVQAGGSLRLSCAASGFIFRHNGMGWYRQAPGKERELVAAITKRGGDTYYADSVKGRFTISRDNAKNSVYLQMISLKREDTAVYYCTVDVRYPVSFDYDYWGQGNQVTVSS,low polyreactivity
15,QVQLVESGGGLVQAGGSLRLSCAASGFIFRHYAMGWYRQAPGKEREFVAAISYRGDSTYYADSVKGRFTISRDNAKNTVYLQMNSLKPEDTAVYYCAATYVSSAYYSYDYWGQGTQVTVSS,high polyreactivity
16,QVQLVESGGGLVQAGGSLRLSCAASGFIFRHYAMGWYRQAPGKERELVAGINTSGGSTHYADSVKGRFTISRDNAKNTVYLQMNSLKPEDTAVYYCAADVYRYYAGSRYYYWGQGSQVTVSS,low polyreactivity
17,QVQLVESGGGLVQAGGSLRLSCAASGFIFRINAMGWYRQAPGKERELVAAITSSGGSTYYADSVKGRFTISRDNAKNTVYLQMNSLKPEDTAVYYCAASRPRPPSSRRMDYWGQGTQVTVSS,high polyreactivity
18,QVQLVESGGGLVQAGGSLRLSCAASGFIFRIYAMGWYRQAPGKERELVAAITWDGVSTYYADSVKGRFTISRDNAKNTVYLQMNSLKPEDTAVFYCAARKRSYPYYYWGQGTQVNVSS,high polyreactivity
19,QVQLVESGGGLVQAGGSLRLSCAASGFIFRKYAMGWYRQAPGKERELVAAITASGGSTYYGDSVKGRFTISRDNAKNTVYLQLNSLKPEDTAVYYCATDFHGAERWLKYVYWGQGTQVTVSS,high polyreactivity
20,QVQLVESGGGLVQAGGSLRLSCAASGFIFRKYAMGWYRQAPGKERELVAAITSSGGSTYYAGSVKGRFTISRDNAKNTVYLQMNSLKPEDTAVYYCAARLKQSGHDYWGQGTQVTVSS,high polyreactivity
21,QVQLVESGGGLVQAGGSLRLSCAASGFIFRLYAMGWYRQAPGKERELVAALSSGTSTYYADSVKGRFTISRDNAKNTVYLQMNSLKPEDSAVYYCAAVPRVNWSRYVYFWYDYWGQGTQVTVSS,high polyreactivity
